Measured values: US10577428B2, “Anti-factor XI monoclonal antibodies and methods of use thereof” (Oregon Health & Science University, priority 2007, dated 2020)
“Also recorded” adds a separate entry of the source. Like-named read-outs stand apart in the source and are kept apart here.

Experiments:
[1] = molecular target: T1, FXI (Homo sapiens, UniProt P03951); test: Flow chamber coagulation studies (blood perfused over collagen); type: cell-based
T1 construct: antibody 1A6 recognizes Factor XI in human and non-human primate plasma; from tissue; host or cells: normal human plasma (A4); whole human blood or reconstituted FXII-deficient human blood (A9)
Procedure: Glass capillary tubes were coated with 100 μg/ml Horm collagen (Nycomed Arzenmittel, Munich, Germany). Whole human blood was collected into corn trypsin inhibitor (CTI, 40 μg/ml), discarding the first 1 ml to limit any activation of the coagulation pathway, and then perfused through the tubes at a shear rate of 265 s^−1 for 10 min. […] In separate experiments, washed platelets and RBCs were processed as described (McCarty et al. (2006) J. Thromb. Haemost. 4:1367-1378), and then mixed with FXII deficient human plasma (<1% FXII, Haematologic Technologies, Essex Junction, Vt.) to reach a hematocrit of 40% and platelet count of 300×10^3/μl. […] Recalcified FXII deficient human plasma without RBCs or platelets was also perfused over collagen. Images were obtained by DIC microscopy after three minutes of perfusion with modified Tyrodes buffer.
When whole human blood, which was anticoagulated with CTI to block the function of FXIIa, was perfused over collagen at arterial shear (265 s^−1), platelets were deposited in large aggregates which became enveloped by forming fibrin strands (FIG. 7B). […] The outcome was similar when using reconstituted FXII deficient blood, with or without CTI. […] No fibrin was formed when recalcified FXII deficient human plasma was perfused over collagen. For these experiments, human whole blood, anticoagulated with CTI (40 μg/ml) to inhibit FXIIa, or reconstituted FXII deficient human blood was perfused through collagen coated capillary tubes at a shear rate of 265 s^−1 for 10 minutes. […] Images were obtained via Kohler-illuminated Nomarski differential interference contrast (DIC) microscopy with a Zeiss Axiovert 200M microscope using a Zeiss 63× oil immersion 1.40 NA plan-apochromat lens. Images were captured following three minutes of perfusion with modified Tyrodes buffer using a Zeiss AxioCam with Slidebook 4.0 (Intelligent Imaging Innovations, Inc., Denver, Colo., USA). All experiments were performed at 37° C. Each image in FIG. 7B is representative of 2-3 experiments.

[2] = test system: platelet rich plasma; test: Platelet aggregation in platelet rich plasma in response to ADP and collagen; type: cell-based, baboon; conditions: platelet rich plasma of treated animals versus control
[3] = test system: FXI; test: FXI clotting assay in vitro (FXI deficient human plasma, NBP dilutions as standards); type: biochemical, baboon; conditions: serial dilutions of NBP as standards
[4] = test system: baboon FXI in plasma; test: Western blot of baboon / non-human primate plasma; type: binding
From the text: Results from a Western Blot study corroborating that anti-factor XI monoclonal antibody 1A6 recognizes Factor XI in human and non-human primate plasma is shown in FIG. 7A.

[5] = test system: normal human plasma (NHP); test: aPTT and PT in normal human plasma in vitro; type: biochemical; conditions: 0-40 nM
[6] = test system: normal baboon plasma (NBP); test: aPTT and PT in normal baboon plasma in vitro; type: biochemical; conditions: 0-40 nM
[7] = test system: baboons (Papio anubis); test: Local and systemic TAT, βTG and D-dimer during thrombus formation (4 mm grafts); type: in vivo, baboon (Papio anubis)
Procedure: A novel local sampling method was used to assess the local production of thrombogenic mediators by sampling blood that superfused propagating experimental thrombi. […] All blood samples were collected into 1/10th volume 3.8% citrate anticoagulant. Systemic samples (1 ml each) were collected before initiation of thrombosis as well as 30 and 60 min into each study. A total of 6 local blood samples were drawn from the peripheral blood IBL at a rate of 100 μl/min over 10 min intervals out of a 0.64 mm port which was located 10 mm distal to the growing thrombus (FIG. 1A). […] Infusion and sampling were regulated by syringe pumps (Harvard Apparatus). Local sampling was performed only with the 4 mm i.d. devices in this study.
Blood cell counts were determined using a micro-60 automated cell counter (Horiba-ABX Diagnostics). Blood samples were divided into two aliquots and processed according to specific test requirements. All samples were placed on ice for 10 min, centrifuged at 4° C. for 10 min at 12,900 g, and the plasmas were stored at −80° C. For β-thromboglobulin (βTG) determinations, the samples were supplemented with 4 μg/ml prostaglandin E1 (PGE1), 4.3 mg/ml acetylsalicylic acid (ASA), and 50 μg/ml PPACK. Cross-reacting ELISA assays were used to determine D-dimer levels (IMUCLONE® D-Dimer, American Diagnostica; LOD: 35 ng/mL), the platelet activation marker βTG (Asserachrom®, Diagnostica Stago; LOD: 5 IU/mL), and thrombin-antithrombin complexes (TAT, Enzygnost-TAT, Dade-Behring; LOD: 2 ng/mL). All ELISA test kits utilized for these studies have previously shown sensitivity to baboon markers.

[8] = test system: baboons; test: Observation for adverse reactions and bleeding events; type: in vivo, baboon
[9] = test system: third apple (A3) domain of the FXI heavy chain; test: Immunoblotting of FXI and recombinant FXI/prekallikrein chimeras; type: binding, human; conditions: for FXI domain recognized: immunoblotting of recombinant FXI/prekallikrein chimeras
Procedure: (§1) Comparative binding studies for monoclonal antibody 1A6 were conducted using FXI, Prekallikrein (PK), and FXI/PK chimeras involving either the substitution FXI domains with PK domains (FIG. 9) or the substitution of PK domains with FXI domains (FIG. 10).

[10] = molecular target: Prekallikrein (PK) (Homo sapiens, UniProt P03952); test: Western blot binding to prekallikrein
Procedure: as §1

[11] = CTI (40 μg/ml) whole human blood, aXIMab 20 μg/ml, collagen, 265 s^-1, 10 min
[12] = FXII-inhibited or deficient human blood under flow (FIG. 7B)

Chain of Prekallikrein (PK) (P03952 20-638): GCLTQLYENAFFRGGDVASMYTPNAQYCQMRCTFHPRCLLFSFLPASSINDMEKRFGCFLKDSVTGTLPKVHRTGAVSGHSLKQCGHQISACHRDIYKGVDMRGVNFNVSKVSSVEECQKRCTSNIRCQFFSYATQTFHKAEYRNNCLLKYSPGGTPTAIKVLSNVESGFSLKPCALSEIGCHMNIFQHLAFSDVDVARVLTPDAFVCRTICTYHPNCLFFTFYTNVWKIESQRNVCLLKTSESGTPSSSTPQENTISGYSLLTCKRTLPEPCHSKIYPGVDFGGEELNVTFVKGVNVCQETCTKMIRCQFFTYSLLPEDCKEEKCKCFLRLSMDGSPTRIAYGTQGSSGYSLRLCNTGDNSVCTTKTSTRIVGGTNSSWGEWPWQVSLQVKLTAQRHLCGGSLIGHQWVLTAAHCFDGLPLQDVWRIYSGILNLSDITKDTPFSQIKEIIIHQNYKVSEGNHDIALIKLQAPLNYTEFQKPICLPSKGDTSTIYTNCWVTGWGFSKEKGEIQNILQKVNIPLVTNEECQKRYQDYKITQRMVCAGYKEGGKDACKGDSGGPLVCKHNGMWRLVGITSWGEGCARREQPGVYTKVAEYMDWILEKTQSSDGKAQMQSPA

B1: aXIMab: neutralizing murine IgG/kappa anti-human FXI monoclonal antibody from hybridoma 1A6; binds A3 domain; VH SEQ ID NO:3, VL SEQ ID NO:5 (antibody, listed as Mus musculus, V domains shown)
VH: QVTLKESGPGILKPSQTLSLTCSFSGFSLSTSGMGVGWIRQPSGKGLEWLAHIWWDDDKYYNPSLKSQLTISKDTSRNQVFLKITSVDAADTATYYCARKRSSVVAHYYAMDYWGQGTSVTVSS
VL: DIVLTQSPASLAVSLGQRATISCKASQSVDYDGDSYLNWYQQKPGQPPKLLIYAASNLESGIPARFSGSGSGTDFTLNIHPVEEEDAATYYCQQSNGDPWTFGGGTKLEIK
[1]; [11]
  Fibrin deposition: noticeably attenuated
  platelet adhesion: modest reduction
[1]; [12]
  platelet accumulation: reduced
  visible fibrin formation: prevented
[1]; reconstituted FXII deficient human blood, with or without CTI, aXIMab 20 μg/ml
  fibrin formation: interrupted fibrin formation
[2]
  Platelet aggregation in response to ADP and collagen: unchanged
[3]
  IC99: 10 nM
[4]
  recognition of FXI on Western blot: single band at 160 kDa
[4]; listed as 1A6
  recognition of FXI on Western blot: recognizes
[5]
  prothrombin time (PT): without affecting
[5]; concentration-dependent
  activated partial thromboplastin time (aPTT): prolonged
[6]
  prothrombin time (PT): without affecting
[6]; concentration-dependent
  activated partial thromboplastin time (aPTT): prolonged
[7]; at 30 min, samples taken distal to thrombi
  βTG release (platelet activation at thrombus surface) reduced: 86%
[7]; at 40 min
  TAT levels by local sampling reduced: up to 98%
[7]; at 60 min
  Systemic βTG levels reduced: 42%
  systemic TAT levels reduced versus untreated controls: 81%
[7]; at 60 min, n=6, control 22.1±2.5
  systemic TAT levels: 4.3 ± 0.5 µg/L
[7]; at 60 min, n=6, vehicle 39.5±5.5
  Systemic βTG levels: 23.0±2.1 IU/ml
[7]; pre-treatment with aXIMab (FIG. 4A)
  increase in local TAT levels: prevented the increase in local TAT levels
[8]; 2 mg/kg i.v. bolus, 4 baboons
  adverse reactions to the antibody: No adverse reactions
[8]; one week follow-up periods of observation
  adverse bleeding events: No re-bleeding phenomena, petechiae, hematomas or other adverse bleeding events
[9]; FXI domains substituted with PK domains (FIG. 9)
  binding to FXI/PK chimeras: bound all FXI/PK chimeras except the chimera in which the A3 domain of FXI was substituted with a PK domain
[9]; PK domains substituted with FXI domains (FIG. 10), listed as 1A6
  binding to FXI/PK chimeras: bound only to chimeras in which the A3 domain of FXI had been inserted; also recorded: bind only to chimeras in which the A3 domain of FXI had been inserted
[9]
  FXI domain recognized: specifically recognized the third apple (A3) domain
[9]; listed as 1A6
  FXI domain recognized: bound to an epitope on the FXI A3 domain
[10]
  binding to PK: did not bind
